Laboratory results from the supplement of paper PMC11865577.

system: TO-N3-2 (biotin conjugate); assay: pull-down binding Z-score (relative to library population); higher = stronger binding; settings: RNA library: Library-2
Summary of the method: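 Cy5- or Cy3-end-labelled RNA library (1 μg) was heat-folded in phosphate/NaCl/KCl buffer and incubated 60 min at 25 °C with streptavidin beads carrying 100 pmol biotin-conjugated small molecule. After three washes, bound RNA was eluted in hot SDS and hybridised 20 h at 55.5 °C to a DNA barcode microarray. Binding was scored by subtracting a beads-only control, averaging barcoded replicate probes after dropping highest and lowest, and converting to a Z-score against library mean and standard deviation.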

Sequence	pull-down binding Z-score
GGGAAAGAAGUCCU [IAV_invivo_HA_4_Motif_8+IAV_invivo_HA_4_Motif_8]	-0.872
GGGAAGAACACC [IAV_invivo_M1_M2_7_Motif_3+IAV_invivo_M1_M2_7_Motif_3]	-0.0552
GGGAAGGCGAAAGACC [IAV_invivo_PA_3_Motif_21+IAV_invivo_PA_3_Motif_21]	1.12
GGGAAUAUAAUCUC [IAV_invivo_NA_6_Motif_2+IAV_invivo_NA_6_Motif_2]	-0.715
GGGACUGAGAAUUAGCUCAUCCU [IAV_invivo_PB2_1_Motif_14+IAV_invivo_PB2_1_Motif_14]	0.208
GGGACUUAUGAUUAUCCC [IAV_invivo_HA_4_Motif_18+IAV_invivo_HA_4_Motif_18]	-0.911
GGGAGAGACGAACAGUCGAUUGCC [IAV_invivo_PB2_1_Motif_17+IAV_invivo_PB2_1_Motif_17]	0.839
GGGAGAUAACAUUCC [IAV_invivo_M1_M2_7_Motif_7+IAV_invivo_M1_M2_7_Motif_7]	-0.107
GGGAGAUUAAUGGUCCU [IAV_invivo_PB2_1_Motif_25+IAV_invivo_PB2_1_Motif_25]	0.225
GGGAGCAAACCC [IAV_invivo_PB1_2_Motif_31+IAV_invivo_PB1_2_Motif_31]	0.11
GGGAGCUAUAAACAGCAGUCUCCC [IAV_invivo_HA_4_Motif_12+IAV_invivo_HA_4_Motif_12]	0.468
GGGAGUCUUCGAGCUCUC [IAV_invivo_NP_5_Motif_24+IAV_invivo_NP_5_Motif_24]	-0.555
GGGAUUAUCCU	-0.985
GGGCAAGCUGUCUCAAAUGUCC [IAV_invivo_PA_3_Motif_10+IAV_invivo_PA_3_Motif_10]	0.0264
GGGCCACUGCCAGAAGACAAUGAACCAAGUGGUUAUGCCC [IAV_invivo_PB1_2_Motif_5+IAV_invivo_PB1_2_Motif_5]	0.713
GGGCCUCCCUGUUCUCAGCGGUCC [IAV_invivo_PA_3_Motif_11+IAV_invivo_PA_3_Motif_11]	-0.287
GGGCUAGAUUCCC [DMSMaPseq_invitro_SARS-CoV-2_Motif_228]	-0.533
GGGCUCAGAAUAUGACUAUGUCAUAUUCACUCAAACCACUGAAACAGCUC [SHAPE_invitro_SARS-CoV-2_Motif_328]	-0.4
GGGCUCAUACCC [IAV_invivo_HA_4_Motif_7+IAV_invivo_HA_4_Motif_7]	0.397
GGGCUGUGACCACUGAAGUGGCAUUUGGCCU [IAV_invivo_M1_M2_7_Motif_9+IAV_invivo_M1_M2_7_Motif_9]	0.272
GGGGACGACCU [IAV_invivo_NA_6_Motif_17+IAV_invivo_NA_6_Motif_17]	-0.0675
GGGGAUCUAUCAGAUUCUGGCGAUCUACUCAACUGUCGCCAGUUCACUGGUGCUUUUGGUCUCC [IAV_invivo_HA_4_Motif_19+IAV_invivo_HA_4_Motif_19]	0.69

Sequence	pull-down binding Z-score
GGGGCCGGGGCCGGGGCCGGGGCCGGGGCCGGGGCC [G4_r(GGGGCC)8]	3.77
GGGGCGUUUAUGCAACCC [IAV_invivo_PB1_2_Motif_33+IAV_invivo_PB1_2_Motif_33]	-0.334
GGGGCUGAGAAACCAAAGUUUC [IAV_invivo_PA_3_Motif_3+IAV_invivo_PA_3_Motif_3]	0.822
GGGGUGAAGAGGAUACUUACCUG [U1snRNP5ss-12]	0.523
GGGGUGUACAUCAAUACUGCCUU [IAV_invivo_PA_3_Motif_19+IAV_invivo_PA_3_Motif_19]	0.595
GGGUACGACUUUGAAAGGGAGGGAUACUCUCUAGUCGGAAUAGACCC [IAV_invivo_NP_5_Motif_16+IAV_invivo_NP_5_Motif_16]	0.638
GGGUAGGGUUUGGGGGAGAGCGUGGGCUGGGGUUCAGGGACA [pre-miRNA-1229_WT_FL]	5.13
GGGUAGGGUUUGGGGGAGAGUGUGGGCUGGGGUUCAGGGACA [pre-miRNA-1229_SNP_FL]	4.79
GGGUAGUGGUGAGCAUUGACC [IAV_invivo_PB2_1_Motif_22+IAV_invivo_PB2_1_Motif_22]	0.804
GGGUCGGUUGCUCACAAGUCCUGCCUGCCUGCCU [IAV_invivo_NP_5_Motif_15+IAV_invivo_NP_5_Motif_15]	1.7
GGGUGGGUGGGUGGGUGGGUGGGU [G4_r(GGGU)6]	5.53
GGGUGGGUGGGUGGGUGGGUGGGUGGGUGGGU [G4_r(GGGU)8]	5.15
GGGUUGGGUUGGGUUGGGUUGGGUUGGGUU [G4_r(GGGUU)6]	5.08
GGGUUGGGUUGGGUUGGGUUGGGUUGGGUUGGGUUGGGUU [G4_r(GGGUU)8]	5.93
GGGUUUACAAACAAUUUGAUACUUAUAACCU [DMSMaPseq_invitro_SARS-CoV-2_Motif_347]	-1.11
GGUAAAAUUGUUAAUAAUUGGUUGAAGCAGUUAAUUAAAGUUACACUUGUGUUCCUUUUUGUUGCUGCUAUUUUCUAUUUAAUAACACC [DMSMaPseq_invitro_SARS-CoV-2_Motif_156]	-1.04
GGUAAUUAUACAGUUUCCUGUUUACC [DMSMaPseq_invitro_SARS-CoV-2_Motif_504]	-0.867
GGUAAUUAUACAGUUUCCUGUUUACCUUUUACAAUUAAUUGCC [SHAPE_invitro_SARS-CoV-2_Motif_513]	-1.1
GGUACAACAACUUACAAAUUAAAUGUUGGUGAUUAUUUUGUGCU [SHAPE_invivo_SARS-CoV-2_Motif_319]	-0.524
GGUACAUUUACUUGUGCU [SHAPE_invivo_SARS-CoV-2_Motif_118]	-0.222
GGUACGUUAAUAGUUAAUAGCGUACUUCUUUUUCUUGCUUUCGUGGUAUUCUUGCUAGUUACACUAGCCAUCCUUACUGCGCUUCGAUUGUGUGCGUACU	-0.294
GGUCAAAUCAAUGAUAUGAUUUUAUC	-1.3

Sequence	pull-down binding Z-score
GGUCAGAAUGAUC [IAV_invivo_NP_5_Motif_12+IAV_invivo_NP_5_Motif_12]	-0.437
GGUCCAGAACAAACCCAAGGAAAUUUUGGGGACC	-0.00332
GGUCCAGCAACAGCUCAAAUGGCC [IAV_invivo_PB1_2_Motif_29+IAV_invivo_PB1_2_Motif_29]	0.392
GGUCUAUAUGCC [SHAPE_invivo_SARS-CoV-2_Motif_218]	-0.475
GGUCUCCGACGGAGGCC [IAV_invivo_PB1_2_Motif_32+IAV_invivo_PB1_2_Motif_32]	-1.15
GGUCUGCAGGACU [IAV_invivo_PA_3_Motif_27+IAV_invivo_PA_3_Motif_27]	-0.231
GGUGAAGGACGGGUCCAGUAGUUCGCUACUGUUGAGUAGAGUGUGAGCUCC [BabySpinach]	2.02
GGUGACAACAACC [IAV_invivo_M1_M2_7_Motif_11+IAV_invivo_M1_M2_7_Motif_11]	-0.457
GGUGCUCCCAAGAGGGAAGCU [IAV_invivo_NP_5_Motif_18+IAV_invivo_NP_5_Motif_18]	0.775
GGUGGAAUUGGACGAUUCUACAUCCAAAUGUGCACC [IAV_invivo_NP_5_Motif_3+IAV_invivo_NP_5_Motif_3]	-0.454
GGUGGCAAACCUUGUAUCAAAGUAGCCACU [SHAPE_invitro_SARS-CoV-2_Motif_216]	-0.605
GGUGGUAUUGUAGCUAUCGUAGUAACAUGCCUUGCC	0.0259
GGUGUGGAUGGCAUGCC [IAV_invivo_NP_5_Motif_17+IAV_invivo_NP_5_Motif_17]	0.0568
GGUGUUGCAGGAGCCUUAAAUAAGGCUACUAACAAUGCC [SHAPE_invivo_SARS-CoV-2_Motif_68]	-1.05
GGUGUUGUUGGAGAAGGUUCCGAAGGUCUUAAUGACAACCUUCUUGAAAUACUCC	0.062
GGUGUUUAUUACC	-0.855
GGUGUUUUAACU	-0.847
GGUGUUUUAACUGCUGUGGUUAUACCUACUAAAAAGGCUGGUGGCACUACUGAAAUGCU	-0.153
GGUUAUAAGAAACC	-0.964
GGUUCAACUCUCCCUAGGAGGUCUGGAGCC [IAV_invivo_NP_5_Motif_11+IAV_invivo_NP_5_Motif_11]	0.0598
